Measurements from PMC5481743, “Cryptic indole hydroxylation by a non-canonical terpenoid cyclase parallels bacterial xenobiotic detoxification” (Nature Communications, 2017).

Key:
[1] = target: T1, XiaF (Streptomyces sp. HKI0576, UniProt I7IIA9); test: HPLC-HRMS biotransformation assay; assay type: biochemical; settings: 100 uM substrate, 500 uM NADH, 50 uM FAD, flavin reductase XiaP, pH 8.0, 28 °C
T1 construct: full-length (Met1-Leu397), N-terminal His-tag (pET-28b, thrombin-cleavable; pET-26b with MHHHHHH for crystals); from E. coli; homotetramer
T1 sequence (I7IIA9 entry or part of it): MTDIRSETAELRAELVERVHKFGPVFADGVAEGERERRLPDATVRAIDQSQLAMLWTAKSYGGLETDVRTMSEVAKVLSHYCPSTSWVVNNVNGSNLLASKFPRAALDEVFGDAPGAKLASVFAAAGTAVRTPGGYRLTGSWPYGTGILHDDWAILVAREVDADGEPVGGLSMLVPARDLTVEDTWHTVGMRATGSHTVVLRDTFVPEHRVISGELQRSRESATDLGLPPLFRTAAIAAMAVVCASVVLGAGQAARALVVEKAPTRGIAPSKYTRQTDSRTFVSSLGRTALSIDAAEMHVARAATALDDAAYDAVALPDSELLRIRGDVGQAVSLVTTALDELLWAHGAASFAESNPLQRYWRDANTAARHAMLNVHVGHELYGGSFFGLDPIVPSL

[2] = target: His-tagged XiaF (44.5 kDa, from pXU520) (Streptomyces sp. HKI0576); test: SEC; HiLoad 16/600 Superdex 200 prep grade; 20 mM Tris-HCl pH 8.0, 100 mM NaCl; calibrated with Gel Filtration Calibration Kits
[3] = target: XiaF (recombinant, N-terminal histidine-tag, construct pET26b(+)-xiaF used for crystallization) (Streptomyces sp. HKI0576); test: crystal structure; hanging drop vapour diffusion at 20 °C; XiaF apo (5LVU), with FADH2 (5LVW), with FADH2 and glycerol (5MR6); molecular replacement
[4] = target: untagged XiaF (42.4 kDa, tag cleaved with thrombin) (Streptomyces sp. HKI0576); test: SEC; HiLoad 16/600 Superdex 200 prep grade; 20 mM Tris-HCl pH 8.0, 100 mM NaCl; calibrated with Gel Filtration Calibration Kits
[5] = target: the molecule itself; test: SEC; HiLoad 16/600 Superdex 200 prep grade; 100 mM NaH2PO4, 100 mM Na2HPO4, 2% glycerol, pH 7.0

**Q.** `C=C1CC[C@@H]2[C@](C)(CC[C@H](O)[C@@]2(C)C(=O)O)[C@H]1Cc1c[nH]c2ccccc12` [compound 2, indosespene] was tested. Which HPLC-HRMS biotransformation assay [1] did it give?
**A.** we found that XiaP substantially increases the performance of XiaF

**Q.** Which stoichiometry N [2] does the source give for “His-tagged XiaF (44.5 kDa, from pXU520) (enzyme)” here?
**A.** 4

**Q.** “XiaF (recombinant, N-terminal histidine-tag, construct pET26b(+)-xiaF used for crystallization) (enzyme)” was tested. Which stoichiometry N [3] did it give?
**A.** 4

**Q.** How did the stoichiometry N [4] turn out when “untagged XiaF (42.4 kDa, tag cleaved with thrombin) (enzyme)” was run?
**A.** 4

B1: His-tagged XiaP (enzyme, Streptomyces sp. HKI0576)
chain: MIDRETFVELMSGVCAPVTVVTTATADGRPHGSTVSSFTSLSLDPPLASFALDRGSGLLPHLHQGARVGVNILAAHQHALAASFARRCPGTGSKFDGITWTTRAGLPHLPDSAGWTAGRVERHVPGGDHVLLVISVEEAHSTPAAPLVYLRRSFGTYSGLPAGG
notes: XiaP, NADH:flavin oxidoreductase of Streptomyces sp; HKI0576; also called flavin reductase XiaP; flavoenzyme-reductase; source: E. coli BL21-CodonPlus(DE3)-RP (pET28c-xiaP), purified (Ni-NTA, SEC)
**Q.** Which “stoichiometry N” value [5] does the source give for B1 here?
**A.** 2
